According to publication PMC3553014, “Albumin Stimulates the Activity of the Human UDP-Glucuronosyltransferases 1A7, 1A8, 1A10, 2A1 and 2B15, but the Effects Are Enzyme and Substrate Dependent” (PLoS ONE, 2013):

B1: UGT2B15 (Homo sapiens) (protein)
chain: GKVLVWPTEYSHWINMKTILEELVQRGHEVTVLTSSASTLVNASKSSAIKLEVYPTSLTKNYLEDSLLKILDRWIYGVSKNTFWSYFSQLQELCWEYYDYSNKLCKDAVLNKKLMMKLQESKFDVILADALNPCGELLAELFNIPFLYSLRFSVGYTFEKNGGGFLFPPSYVPVVMSELSDQMIFMERIKNMIHMLYFDFWFQIYDLKKWDQFYSEVLGRPTTLFETMGKAEMWLIRTYWDFEFPRPFLPNVDFVGGLHCKPAKPLPKEMEEFVQSSGENGIVVFSLGSMISNMSEESANMIASALAQIPQKVLWRFDGKKPNTLGSNTRLYKWLPQNDLLGHPKTKAFITHGGTNGIYEAIYHGIPMVGIPLFADQHDNIAHMKAKGAALSVDIRTMSSRDLLNALKSVINDPVYKENVMKLSRIHHDQPMKPLDRAVFWIEFVMRHKGAKHLRVAAHNLTWIQYHSLDVIAFLLACVATVIFIITKFCLFCFRKLAKKGKKKKRD
B2: UGT1A6 (Homo sapiens) (protein)
chain: DKLLVVPQDGSHWLSMKDIVEVLSDRGHEIVVVVPEVNLLLKESKYYTRKIYPVPYDQEELKNRYQSFGNNHFAERSFLTAPQTEYRNNMIVIGLYFINCQSLLQDRDTLNFFKESKFDALFTDPALPCGVILAEYLGLPSVYLFRGFPCSLEHTFSRSPDPVSYIPRCYTKFSDHMTFSQRVANFLVNLLEPYLFYCLFSKYEELASAVLKRDVDIITLYQKVSVWLLRYDFVLEYPRPVMPNMVFIGGINCKKRKDLSQEFEAYINASGEHGIVVFSLGSMVSEIPEKKAMAIADALGKIPQTVLWRYTGTRPSNLANNTILVKWLPQNDLLGHPMTRAFITHAGSHGVYESICNGVPMVMMPLFGDQMDNAKRMETKGAGVTLNVLEMTSEDLENALKAVINDKSYKENIMRLSSLHKDRPVEPLDLAVFWVEFVMRHKGAPHLRPAAHDLTWYQYHSLDVIGFLLAVVLTVAFITFKCCAYGYRKCLGKKGRVKKAHKSKTH
B3: UGT2B7 (Homo sapiens) (protein)
chain: GKVLVWAAEYSHWMNIKTILDELIQRGHEVTVLASSASILFDPNNSSALKIEIYPTSLTKTELENFIMQQIKRWSDLPKDTFWLYFSQVQEIMSIFGDITRKFCKDVVSNKKFMKKVQESRFDVIFADAIFPCSELLAELFNIPFVYSLSFSPGYTFEKHSGGFIFPPSYVPVVMSELTDQMTFMERVKNMIYVLYFDFWFEIFDMKKWDQFYSEVLGRPTTLSETMGKADVWLIRNSWNFQFPYPLLPNVDFVGGLHCKPAKPLPKEMEDFVQSSGENGVVVFSLGSMVSNMTEERANVIASALAQIPQKVLWRFDGNKPDTLGLNTRLYKWIPQNDLLGHPKTRAFITHGGANGIYEAIYHGIPMVGIPLFADQPDNIAHMKARGAAVRVDFNTMSSTDLLNALKRVINDPSYKENVMKLSRIQHDQPVKPLDRAVFWIEFVMRHKGAKHLRVAAHDLTWFQYHSLDVIGFLLVCVATVIFIVTKCCLFCFWKFARKAKKGKND
B4: UGT1A1 (Homo sapiens) (protein)
chain: HAGKILLIPVDGSHWLSMLGAIQQLQQRGHEIVVLAPDASLYIRDGAFYTLKTYPVPFQREDVKESFVSLGHNVFENDSFLQRVIKTYKKIKKDSAMLLSGCSHLLHNKELMASLAESSFDVMLTDPFLPCSPIVAQYLSLPTVFFLHALPCSLEFEATQCPNPFSYVPRPLSSHSDHMTFLQRVKNMLIAFSQNFLCDVVYSPYATLASEFLQREVTVQDLLSSASVWLFRSDFVKDYPRPIMPNMVFVGGINCLHQNPLSQEFEAYINASGEHGIVVFSLGSMVSEIPEKKAMAIADALGKIPQTVLWRYTGTRPSNLANNTILVKWLPQNDLLGHPMTRAFITHAGSHGVYESICNGVPMVMMPLFGDQMDNAKRMETKGAGVTLNVLEMTSEDLENALKAVINDKSYKENIMRLSSLHKDRPVEPLDLAVFWVEFVMRHKGAPHLRPAAHDLTWYQYHSLDVIGFLLAVVLTVAFITFKCCAYGYRKCLGKKGRVKKAHKSKTH
B5: UGT1A7 (Homo sapiens) (protein)
chain: GKLLVVPMDGSHWFTMQSVVEKLILRGHEVVVVMPEVSWQLGRSLNCTVKTYSTSYTLEDQDREFMVFADARWTAPLRSAFSLLTSSSNGIFDLFFSNCRSLFNDRKLVEYLKESCFDAVFLDPFDACGLIVAKYFSLPSVVFARGIFCHYLEEGAQCPAPLSYVPRLLLGFSDAMTFKERVWNHIMHLEEHLFCPYFFKNVLEIASEILQTPVTAYDLYSHTSIWLLRTDFVLEYPKPVMPNMIFIGGINCHQGKPVPMEFEAYINASGEHGIVVFSLGSMVSEIPEKKAMAIADALGKIPQTVLWRYTGTRPSNLANNTILVKWLPQNDLLGHPMTRAFITHAGSHGVYESICNGVPMVMMPLFGDQMDNAKRMETKGAGVTLNVLEMTSEDLENALKAVINDKSYKENIMRLSSLHKDRPVEPLDLAVFWVEFVMRHKGAPHLRPAAHDLTWYQYHSLDVIGFLLAVVLTVAFITFKCCAYGYRKCLGKKGRVKKAHKSKTH
B6: UGT1A8 (Homo sapiens) (protein)
chain: GKLLVVPMDGSHWFTMQSVVEKLILRGHEVVVVMPEVSWQLGKSLNCTVKTYSTSYTLEDLDREFMDFADAQWKAQVRSLFSLFLSSSNGFFNLFFSHCRSLFNDRKLVEYLKESSFDAVFLDPFDACGLIVAKYFSLPSVVFARGIACHYLEEGAQCPAPLSYVPRILLGFSDAMTFKERVRNHIMHLEEHLFCQYFSKNALEIASEILQTPVTAYDLYSHTSIWLLRTDFVLDYPKPVMPNMIFIGGINCHQGKPLPMEFEAYINASGEHGIVVFSLGSMVSEIPEKKAMAIADALGKIPQTVLWRYTGTRPSNLANNTILVKWLPQNDLLGHPMTRAFITHAGSHGVYESICNGVPMVMMPLFGDQMDNAKRMETKGAGVTLNVLEMTSEDLENALKAVINDKSYKENIMRLSSLHKDRPVEPLDLAVFWVEFVMRHKGAPHLRPAAHDLTWYQYHSLDVIGFLLAVVLTVAFITFKCCAYGYRKCLGKKGRVKKAHKSKTH
B7: UGT1A10 (Homo sapiens) (protein)
chain: GKLLVVPMDGSHWFTMQSVVEKLILRGHEVVVVMPEVSWQLERSLNCTVKTYSTSYTLEDQNREFMVFAHAQWKAQAQSIFSLLMSSSSGFLDLFFSHCRSLFNDRKLVEYLKESSFDAVFLDPFDTCGLIVAKYFSLPSVVFTRGIFCHHLEEGAQCPAPLSYVPNDLLGFSDAMTFKERVWNHIVHLEDHLFCQYLFRNALEIASEILQTPVTAYDLYSHTSIWLLRTDFVLDYPKPVMPNMIFIGGINCHQGKPLPMEFEAYINASGEHGIVVFSLGSMVSEIPEKKAMAIADALGKIPQTVLWRYTGTRPSNLANNTILVKWLPQNDLLGHPMTRAFITHAGSHGVYESICNGVPMVMMPLFGDQMDNAKRMETKGAGVTLNVLEMTSEDLENALKAVINDKSYKENIMRLSSLHKDRPVEPLDLAVFWVEFVMRHKGAPHLRPAAHDLTWYQYHSLDVIGFLLAVVLTVAFITFKCCAYGYRKCLGKKGRVKKAHKSKTH

How the values were obtained:
[1] = target: T1, UGT1A8 (Homo sapiens, UniProt Q9HAW9); assay: UGT1A8-catalyzed glucuronidation, enzyme kinetics; details: 1% DMSO; entacapone glucuronidation; absence and presence of 0.1% BSA
T1 sequence (Q9HAW9 26-530): B6 chain
Experimental: Recombinant human UGTs 1A1, 1A6, 1A7, 1A8, 1A10, 2A1, 2B4, 2B7 and 2B17 were expressed as His-tagged proteins in baculovirus-infected insect cells as described previously [14]. […] Protein concentrations were determined by the BCA method (Pierce Biotechnology, Rockford, IL, USA).
(§1) The protein concentrations and incubation times for the enzyme kinetic assays were selected based on preliminary assays in order to ensure that the product formation was within the linear range with respect to both protein concentration and time, and that the substrate consumption during the reaction was less than 10%. The initial velocity measurements were performed in either duplicates or triplicates and they are presented as the average values and S.E.
The glucuronidation rates by recombinant enzymes are reported as “expression normalized” values. The relative expression level of each recombinant UGT that was produced in our laboratory was determined using immunoblotting, as previously described [14], [19]. The dot blot assays were performed in triplicate and the average value was used for normalization. […] The “expression normalized” glucuronidation rates were calculated by dividing the measured glucuronidation rates with relative expression level of the each given recombinant UGT.
(§2) In assays containing BSA, the total concentrations of substrate were corrected according to the measured drug binding to BSA, under the specific conditions of each glucuronidation assay.

[2] = substrate: Cc1cc(=O)oc2cc(O)ccc12; assay: purified protein, by the assay type; details: pH 7.4
[3] = substrate: Oc1cccc2ccccc12; assay: purified protein, by the assay type; details: pH 7.4
[4] = substrate: CCN(CC)C(=O)/C(C#N)=C/c1cc(O)c(O)c([N+](=O)[O-])c1; assay: purified protein, by the assay type; details: pH 7.4
Experimental: Protein concentrations were determined by the BCA method (Pierce Biotechnology, Rockford, IL, USA).
as §1
The HPLC system consisted of an Agilent 1100 series degasser, binary pump, 100-vial autosampler, thermostated column compartment, multiple wavelengths UV detector, and fluorescence detector (Agilent Technologies, Palo Alto, CA, USA). […] The resulting chromatograms were analyzed with Agilent ChemStation software (rev. B.01.01) on Windows XP Professional. The UPLC system consisted of a Waters Acquity UPLC equipped with column manager, sample manager, binary solvent pump, and photodiode array UV detector (Waters, Milford, MA, USA). The UV detector was equipped with high-sensitivity 2.4 µL flow cell.
as §2

Molecule	reduction of the UGT activity [1]	K0.5 [2]	Vmax [2]	K0.5 [3]	K0.5 [4]	Vmax [4]
C[S+](C)[O-] [DMSO, Dimethyl sulfoxide]	≤ 15%					
B1		29.6±0.9(27.6–31.5) uM	0.00083 µmol/min/mg			
B2		76.4±15.1(45.3–107.5) uM	0.0052 µmol/min/mg	8.07±0.48(7.08–9.06) uM		
B3		301±65(165–436) uM	0.00028 µmol/min/mg			
B4		72.6±6.9(58.2–87.0) uM	0.00011 µmol/min/mg	101±11(78–123) uM		
B5					33.2±4.0(24.9–41.6) uM	0.00015 µmol/min/mg
B6		134±9(115–154) uM	0.0012 µmol/min/mg		73.1±3.7(65.4–80.7) uM	0.0012 µmol/min/mg
B7					56.7±2.3(51.9–61.5) uM	0.00091 µmol/min/mg
